Assay results taken from paper PMC3319151 (Journal of Molecular Biology, 2009).
Where no end group is shown, it is not given here. The star is where a group is joined. 5FAM = O=C1OC2(c3ccc(O)cc3Oc3cc(O)ccc32)c2ccc(C(=O)*)cc21

Assays:
[1] = target: WFHVEED peptide (synthetic construct); test: fluorescence polarization; conditions: cited from earlier work
[2] = target: (FAM)-AWFHVEED peptide; test: fluorescence polarisation
[3] = target: T1, CA150 FF1-3 (human CA150 residues 661-845), GST cleaved off (human, UniProt O14776 661-845); test: fluorescence polarisation
T1 sequence: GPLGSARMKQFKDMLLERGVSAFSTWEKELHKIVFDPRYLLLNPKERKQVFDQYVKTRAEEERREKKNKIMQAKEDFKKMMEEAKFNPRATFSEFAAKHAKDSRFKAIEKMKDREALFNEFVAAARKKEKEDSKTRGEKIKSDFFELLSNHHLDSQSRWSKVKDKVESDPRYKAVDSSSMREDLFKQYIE

[4] = target: T2, GST-CA150 FF1-3 (human, UniProt O14776 661-845); test: fluorescence polarization
T2 sequence: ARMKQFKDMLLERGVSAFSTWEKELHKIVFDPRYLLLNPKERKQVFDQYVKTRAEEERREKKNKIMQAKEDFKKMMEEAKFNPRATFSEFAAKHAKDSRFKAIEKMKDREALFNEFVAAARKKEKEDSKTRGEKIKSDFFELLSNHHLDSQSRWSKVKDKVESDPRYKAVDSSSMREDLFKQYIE

[5] = target: T3, CA150 FF1-3 wild-type (human, UniProt O14776 661-845); test: fluorescence polarization
T3 sequence: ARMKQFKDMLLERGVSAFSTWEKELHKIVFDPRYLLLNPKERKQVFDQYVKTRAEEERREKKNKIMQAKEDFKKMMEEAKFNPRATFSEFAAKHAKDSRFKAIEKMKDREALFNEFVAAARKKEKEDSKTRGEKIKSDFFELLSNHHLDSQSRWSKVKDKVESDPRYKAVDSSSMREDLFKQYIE

CA150 (GST-FF1-3) FF1-3 (from UniProt O14776)
Kd [1]: 48 µM

GST alone
Kd [2]: > 740 µM

5FAM-AWFHVEED [(FAM)-AWFHVEED peptide]
Kd [3]: > 400 µM

B1: MATa1/MATalpha2 duplex of Ke et al. (dsDNA)
DNA 1: ACATGTAAAAATTTACATCA
DNA 2: TTGATGTAAATTTTTACATG
Kd [4]: 0.52 ± 0.06 µM
Kd [5]: 3.87 ± 0.31 µM
